Results from patent US20200308299A1, “ANTI-GPC-1 ANTIBODY” (National University Corporation Kochi University, priority 2017, published 2020).

B1: clone 01a033 (antibody)
heavy: QVQLKQSGPELVKPGASVKISCKASGYSFTGYYMHWVKQSPEKSLEWIGEINPSTGDTTYNQKFKAKATLTVDKSSSTAYMQLKSLTSEDSAVYYCAREKRDDGVFAYWGQGTLVTVSSAKTTAPSVYPLAPVCGDTTGSSVTLGCLVKGYFPEPVTLTWNSGSLSSGVHTFPAVLQSDLYTLSSSVTVTSSTWPSQSITCNVAHPASSTKVDKKIEPRGPTIKPCPPCKCPAPNLLGGPSVFIFPPKIKDVLMISLSPIVTCVVVDVSEDDPDVQISWFVNNVEVHTAQTQTHREDYNSTLRVVSALPIQHQDWMSGKEFKCKVNNKDLPAPIERTISKPKGSVRAPQVYVLPPPEEEMTKKQVTLTCMVTDFMPEDIYVEWTNNGKTELNYKNTEPVLDSDGSYFMYSKLRVEKKNWVERNSYSCSVVHEGLHNHHTTKSFSRTPGK
light: DIVMSQSPKSMSMSVGERVALSCKASENVGTYVSWYQQKPEQSPKLLIYGASNRYTGVPDRFTGSGSATDFTLTISSVQAEDLADYYCGQSYSYPLTFGAGTKLELKRADAAPTVSIFPPSSEQLTSGGASVVCFLNNFYPKDINVKWKIDGSERQNGVLNSWTDQDSKDSTYSMSSTLTLTKDEYERHNSYTCEATHKTSTSPIVKSFNRNEC
B2: GPC1 ADC (conjugate)
heavy: B1 heavy
light: B1 light

Columns and labels:
TE14 cells = assay: ADC assay combining anti-GPC-1 antibody and MMAF binding secondary antibody, TE14 cells; type: cell-based
In short: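 TE14 […] cells (2000/well, RPMI1640 + 10% FBS) exposed to anti-GPC1 primary antibody (final 0–1.0 nM) plus 2 μg/ml MMAF-conjugated anti-mouse Fc Fab secondary for 6 days at 37° C, 5% CO2. Viability measured by CellTiter-Glo ATP luminescence.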

[1] = test system: TE4, TE5, TE6, TE8, TE9, TE10, TE11, TE14, TE15, HeLa, ME180; assay: In vitro antitumor effect of unlabeled antibody (CellTiter-Glo); type: cell-based; settings: 6 days
Protocol: 2000 cells were added to a 96-well plate at 90 μl. The cells were cultured overnight at 37° C. in a 5% CO2 incubator. The next day, 10 μl of an unlabeled primary antibody concentrated […] relative to the final concentration was added to each well, so that the total amount was 100 μl. The cells were cultured for 6 days at 37° C. in a 5% CO2 incubator. The cell viability was measured by using a CellTiter-Glo Luminescent Cell Viability Assay reagent to detect the amount of ATP.

[2] = Safety test on anti-GPC1 antibody 01a033 using mice; type: in vivo, mouse; settings: 1 mg/body ip, C57BL/6J mice, day 7
Protocol: The following items were evaluated on day 7.
Blood collection endpoints: WBC, RBC, Hb, Plt, T-Bil, ALT, ALP, Amy, BUN, Cr, Ca, P, TP, Alb, Na, K, Glob, and Glu, automatic blood cell counter: VetScan HMII, animal biochemical blood analyzer: VetScan VS2.

DU145 cells = assay: ADC assay combining anti-GPC-1 antibody and MMAF binding secondary antibody in DU145 cells; type: cell-based
BxPC3 cells = assay: In vitro ADC assay, BxPC3 cells; type: cell-based, human; settings: BxPC3, 144 hours
Protocol: Preparation of a conjugate of mouse anti-Glypican-1 mAb (01a033), mouse IgG2a (biolegend #400224) as a control, and mc-vc-PAB-MMAF was commissioned to MORADEC. An anticancer agent was conjugated to a cysteine residue via a cleavable linker. The DAR (drug-antibody ratio) was as follows. GPC1-CL-MMAF DAR=3.8, mouse IgG2a-CL-MMAF DAR=4.1.
(1) The cells were seeded on Thermo Fisher Scientific's 96-well white plate (model no.: 136101) (90 μl cell suspension). RPMI1640+10% FBS+100 U/ml penicillin+100 μg/ml streptomycin was used as the medium. The cells were seeded in 60 wells, and 100 μL of medium was added to 36 wells, and cultured in a 5% CO2 incubator at 37° C. (2) The next day, 10 μL of ADC was added to the cells (total amount: 100 μL). (3) After 144 hours of culture, a CellTiter-Glo™ Luminescence Cell Viability Assay reagent (Promega) was added and mixed at 100 μL/well. (4) Measurements were taken with a plate reader. (5) Analysis was conducted with GraphPad Prism 6.
The IC50 values were calculated from the following equation (Hossain M M, Hosono-Fukao T, Tang R, Sugaya N, van Kuppevelt T H, Jenniskens G J, Kimata K, Rosen S D, Uchimura K (2010) Direct detection of HSulf-1 and HSulf-2 activities on extracellular heparan sulphate and their inhibition by PI-88. Glycobiology 20(2): 175-186.)
IC50=10^(Log [A][B]×(50−C)/(D−C)+Log [B]) […]

pancreatic cancer PDX = assay: In vivo efficacy test on GPC1 ADC using pancreatic cancer PDX in NOG mice; parameters: species or system mouse; settings: 1, 3, 10 mg/kg iv day 0, 4, 8, 12
Description: Pancreatic cancer PDX (Patient-derived tumor xenograft) refers to residual tissue from pathological analysis of cancer tissue upon pancreatic cancer surgery from a pancreatic cancer patient. This Example used a pancreatic cancer model created by subcutaneously grafting in superimmunodeficient mice such as NOG mice. While human tumor hardly survives in SCID mice after grafting, NOG mice have more severe immunodeficiency than SCID mouse, so that human tumor is more likely to survive. For this reason, a PDX model has an environment that is closer to human tumor than a mouse model to which a cell strain is grafted. Thus, information obtained with a PDX model is useful in evaluating drug efficacy.
FIG. 24 schematically depicts the test in this Example. Specifically, pancreatic cancer PDX was subcutaneously grafted into 6 week old female NOG mice. […] The tumor volume and body weight were measured on day 0, day 4, day 8, day 12, day 16, day 20, day 24, and day 28.

[3] = primary antibody plus MMAF secondary antibody

Molecule | ADC activity (TE14 cells; primary antibody plus Fab-aMFc-CL-MMAF secondary antibody 2 μg/ml, 6 days) | EC50 values against TE14 cells (TE14 cells; [3]) | antitumor effect on TE14 (TE14 cells; [3]) | antitumor effect in vitro [1] | toxicity (blood cell count, biochemical blood analysis) [2] | activity compared to MIL-38 (DU145 cells; DU145 cells) [fold] | growth suppressing effect against DU145 cells (DU145 cells; primary antibody plus MMAF secondary antibody 2 μg/ml, 3 days) | EC50 values against DU145 cells (DU145 cells; primary antibody plus MMAF secondary antibody, 3 days) | effect of suppressing cell growth (BxPC3 cells) | antitumor effect (tumor volume, tumor weight day 28) (pancreatic cancer PDX)
B1 | highest ADC activity | excellent EC50 values | particularly potent antitumor effect | not observed against any cell strain | Toxicity was not found | 37 | high growth suppressing effect | excellent EC50 values |  | 
B2 |  |  |  |  |  |  |  |  | exhibits an effect of suppressing cell growth | exhibited an antitumor effect
